Laboratory results as given in publication PMC3140484.

What was measured:
[1] = test system: CopR (CgtR9) response regulator, preincubated with acetylphosphate (Corynebacterium glutamicum ATCC 13032); test: EMSA; conditions: 50 mM Tris-HCl pH 7.5, 50 mM KCl, 10 mM MgCl2, 0.5 mM EDTA, 10% glycerol, room temperature 30 min; 50 mM acetylphosphate preincubation (60 min) for P2; DNA …
[2] = test system: CopR (CgtR9) response regulator, unphosphorylated (Corynebacterium glutamicum ATCC 13032); test: EMSA; conditions: unphosphorylated; apparent Kd; 50 mM Tris-HCl pH 7.5, 50 mM KCl, 10 mM MgCl2, 0.5 mM EDTA, 10% glycerol, room temperature 30 min; 50 mM acetylphosphate preincubation (60 min) for P2; DNA …

copR promoter Kd probe, 90 bp
Kd [1]: 400 nM
Kd [2]: 2300 nM
